Laboratory results from the supplement of paper PMC12764529.
± gives the half width of the 95% confidence interval.

assay: folding stability dG unfold from trypsin proteolysis; higher = more stable
In short: (§1)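 K50 was inferred by Bayesian fitting of sequencing counts obtained after protease digestion of designed mini-proteins. Unfolding free energy was derived by comparison with a sequence-predicted unfolded-state K50 and a shared folded-state K50, for each protease or both combined. The mini-proteins were under 80 residues, had no cysteine, were carried in a PA-tagged cDNA display construct, and were kept only if AlphaFold2 dimer inter-PAE exceeded 15.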

| Sequence | folding stability dG unfold |
| --- | --- |
| SAGGPWRFEIDDIQPPEDGKVQIRIKLYNDDGEPIQELSIPMKGVDDVKITIPIGNQPIKIPITVVPASAGG [r13_427_TrROS] | -0.13 ± 0.27 kcal/mol |
| SAGNPSLVKETIIPFTLPDGSEVKLTVKTDPSTGKVTMPIETKDEKVKAKAIELAKKIAEELGFPEVGLSAG [r5_99_JUSTAS] | -0.00377 ± 0.15 kcal/mol |
| SAGGMKVTRLPNALVFEYPLPNSTLRIVVTPGDGTYTLELYRDGKLIATFPSPGPVADLVEAAIKALSAGGS [r8_276_TrMRF] | 2.55 ± 0.053 kcal/mol |
| SAGGSAMPGMTLQELLDAIRALLPPGARARIYVRNPDGEVIELTDLDDITVEDLENAEIRIEIEPVSAGGSA [r15_144_TrROS_Hall] | 3.7 ± 0.1 kcal/mol |
| SAGGGKKTKYVLLTFNPKEVKAEDLEKEILKKGAEIYIGDKPIDPGKGVKEVMKANPNTTFLVKIYDSAGGS [r8_38_TrMRF] | 1.11 ± 0.11 kcal/mol |
| MEEIKNLPGVKYEPIIEDGEIRLVRFEIPKEVFEKFGKPPVILLVEFSKDGKYRILPESIPKLLELGIIPGS [r1_256_TrMRF] | 1.85 ± 0.023 kcal/mol |
| SAGMKIRILILGKGDPAQVEALAKELEAKLKEELGTEDVEVETLPASLTEEAAEERAKEEKVDIVVYESAGG [r19_89_JUSTAS] | 0.85 ± 0.045 kcal/mol |
| SAGKFKITNISPMEERKPEDDKWEEQPYIMIRMRWKDPQKALDEIKEEFGYPVNIQRDPDDGWATIMIPSAG [r5_907_TrROS] | 0.137 ± 0.2 kcal/mol |
| SAGGSAGGSPVLVRVYARDEDGNETPVAEIALPVENDNPEEAAKKAREIAKKLGVKEYRVEIESAGGSAGGS [r12_569_TrMRF] | 1.37 ± 0.031 kcal/mol |
| SAGERKVLVIENLTSEELIEAIREALEKSPPGLLILVPDPEKAEEIRRAFPGIPLVVLNRETGELVEVESAG [r5_391_TrMRF] | 3 ± 0.12 kcal/mol |
| SAGGSAGGSSYLVEVISRKKVKVGGKERYVVPVRIPDNGELVELVVSEDVAKNIKPGDVVVLSSAGGSAGGS [r12_382_TrMRF] | -0.00477 ± 0.058 kcal/mol |
| SAGGSAGGSAKTITITFLFDSPENAKDFVREIAQEDGMKIKVEWERDPEGWWWVTATIEVPSAGGSAGGSAG [r3_273_TrROS] | 2.36 ± 0.1 kcal/mol |
| SMTPEEARALAEAIAAERAAAGYATEMELTVTPVNGVPVATFRFRFTDAAGRATEFTVTVAPDGTVTFTPSA [r9_1027_JUSTAS] | 3.34 ± 0.089 kcal/mol |
| SAGGPGRMREREFEIEFPFEPGQSIEDALRELIGLPPGIQIEDIKVEVDPEDGWVKISVTITVYDPNDSAGG [r13_828_TrROS] | 1.22 ± 0.042 kcal/mol |
| SAMITVEIVDPLPDIANLSEEEAKALAEELAEEYAKKKFPNENVKITKVEVELEPETPEIRVTVTLELKSAG [r14_310_JUSTAS] | 2.09 ± 0.16 kcal/mol |
| SDNFQPDMTFPVTEIGDDKVTMKYNGKPYYIPTSKITSPNVTVKITDGTVSEVSSPSPSPLPPENIKKLSSA [r9_842_JUSTAS] | -0.705 ± 0.24 kcal/mol |
| SAMKIKPGEKVKIKIEVKNKKTKKKKTIEIEVPVDEETGEVFTEDELKKLLEKLGIEVEEVKIVEIEKESAG [r14_93_TrROS_Hall] | 0.886 ± 0.047 kcal/mol |
| SAGGSAGGSAGKIVIVVDEDGNYTLKVNGKTYVFKTPEEAKAAAEELKKAGIEIEIVEVPSAGGSAGGSAGG [r17_35_TrROS_Hall] | 3.6 ± 0.21 kcal/mol |
| SAGGSAGGSAGKIPEIIKKTNAVEKDGKIFLGIKTDGKYYLIELEKKTLKIKKIEPFPDKSAGGSAGGSAGG [r11_808_TrMRF] | -0.135 ± 0.14 kcal/mol |
| SMTIEIEVDGKTVTVEIDPKTGKIKKVVVKDKETGEWKELSDEEIEKLLKELEDELREKREKLEKEGKEPSA [r9_368_TrROS_Hall] | 2.32 ± 0.24 kcal/mol |
| SAGGSAGGSSQEREFTLPDPDGKDIKITMHQNPDGRPRAEIENKDGEPVKEFDSPDDIEDLLKSAGGSAGGS [r20_202_TrROS] | -0.273 ± 0.2 kcal/mol |

assay: folding stability dG unfold from chymotrypsin proteolysis; higher = more stable
In short: as §1

| Sequence | folding stability dG unfold |
| --- | --- |
| SAGGSAGGRWYIMIEIRFPGNGRQFSFMIPIPPGDEVDIKLDELAEWFGFPNVKVDIQVMPLEKSAGGSAGG [r6_722_TrROS] | 4.75 ± 0.12 kcal/mol |
| SAGGSKIPLDNIKVITIMYNPKEGMYWISIRFPNNGKEVVFPYEDAPKILEKFPEIKEIEVYPFPPSAGGSA [r2_159_TrROS] | 2.76 ± 0.036 kcal/mol |
| SKETETVEMEITITVNGKKVKIKATFTRNKDGSITMTITYEDGKKIEITFTNGKIVIVDKKTKKIIAEIPSA [r9_970_TrROS_Hall] | 4.41 ± 0.15 kcal/mol |
| SAGGSAGGSMKVVKILSIETKAEKDEEVLTIPVLDPANGKVITLTVSPEVAKTITTDDEIELLSAGGSAGGS [r12_382_JUSTAS] | 0.517 ± 0.12 kcal/mol |
| SAWYIIKIEIYNPGQNEPIASHTFMVPEEDLDAFKEKIADQFGMNPGWQIKVEIQPIPPVRDKDGEWKWSAG [r14_297_TrROS] | 2.13 ± 0.077 kcal/mol |
| SMPPDEKLIFVTRFKVKPDNPEDIEKALAAARETVRALLEELGLPEVKEVRVLRVEVHPDGYVTVVVEVGSA [r9_754_TrMRF] | 4.73 ± 0.1 kcal/mol |
| SAGGSAGGSAMLTKITITFEKPGTDETFTKPIDVPPDNPEEAIKAIKEELKKKGYKVKSVILSAGGSAGGSA [r18_3_JUSTAS] | 1.73 ± 0.074 kcal/mol |
| SAGGSAGGSKPTLTLEIVLPPEMTLEQLEELARALAEELGLDEVEVRVERRPDGYLRITITVKSAGGSAGGS [r20_208_TrROS_Hall] | 3.45 ± 0.091 kcal/mol |
| SAGGSAGGSAGPVVISIPETNTLVVLAPLPDDRVLADVFQFDPTTPEPTVFTVPAENISFSAGGSAGGSAGG [r11_285_TrMRF] | 0.335 ± 0.13 kcal/mol |
| SAGGSAGGSAGPGVLILRRRFVRPRLIPNTGKLYYEEVELTTNLPIGPIPPNWLNNPNGVSAGGSAGGSAGG [r17_493_TrMRF] | 0.0547 ± 0.11 kcal/mol |
| SAGGGSSSLPAVPVSVETFTFPYKTEEEAKAAAEELAKKLEAEDGKPVKVEVSFDPATGTATVTITVVSAGG [r13_517_JUSTAS] | 3.791 ± 0.036 kcal/mol |
| SAGGSAGGFIEYDPKTGTITVTFPSSVSPEDVRAAIEAAGFPATPVAYSYDPSPPVRTVTFKVASAGGSAGG [r6_396_JUSTAS] | 0.832 ± 0.11 kcal/mol |
| SAGGSAGGSAGKYYIIKYPGKVEIIPESEVEKIIEANPNVEIEEFESKEEALKALEKALSSAGGSAGGSAGG [r11_60_TrMRF] | 4.24 ± 0.083 kcal/mol |
| SAGGMPEVKYLEITITVEVPTEEEALEKLKEELKKLFPNAEIVSVEVEVEEEDGKLTVTVKITVKLPSAGGS [r8_120_TrROS_Hall] | 2.48 ± 0.11 kcal/mol |
| SAGGSAGGSKKKVKVEIVEYDPETKKVTVRVTVDGKEYEFTFSTPEELEAAAKAGKIDEITLTSAGGSAGGS [r12_421_TrROS_Hall] | 2.29 ± 0.043 kcal/mol |
| SAGGLLEELGLEIEEVEVEVEEVEVGQTVRIRVKVKGEDGEEFEIELEIRLPPPPVEVEEEVEEEEESAGGS [r8_216_TrROS_Hall] | 1.83 ± 0.09 kcal/mol |
| MMYLIRVTVYDEETEEEVEEIEILIELSEEELKNMSEEEREKLLEEALKKAEELAKEYPNLKIEVEIVELPS [r1_115_TrROS_Hall] | 4.01 ± 0.09 kcal/mol |
| SAGGSAGGSSGKYTITVTRKNPDGTPLGVFPIEVEGESEEEAKALAEELKNQPDVVEVKVTYVDSAGGSAGG [r6_475_JUSTAS] | 1.02 ± 0.054 kcal/mol |
| SAGGMRIELVRTYIEEPDENGKLKGSGYREVLVLRPPPPVIRVPPELLEEAEELRKKLDGPVEPEELGSAGG [r19_315_JUSTAS] | 3.6 ± 0.18 kcal/mol |
| SAGGSAGGKIPPNMEIEPWRFGGKPYFLIRMPNGSYQVFEFKGDKLKIKETIPVPPGDWILIKFSAGGSAGG [r6_476_TrROS] | 1.98 ± 0.16 kcal/mol |
| SMKPGETVTLEVVIRVKKENMTLEEIAEEVANAIKALLPPGAKITIEVVDIEYDEETDEVYVKLKITIENSA [r9_706_TrROS_Hall] | 2.64 ± 0.23 kcal/mol |

| Sequence | folding stability dG unfold |
| --- | --- |
| SAGGPWRFEIDDIQPPEDGKVQIRIKLYNDDGEPIQELSIPMKGVDDVKITIPIGNQPIKIPITVVPASAGG [r13_427_TrROS] | 0.614 ± 0.22 kcal/mol |
| SAGNPSLVKETIIPFTLPDGSEVKLTVKTDPSTGKVTMPIETKDEKVKAKAIELAKKIAEELGFPEVGLSAG [r5_99_JUSTAS] | 0.241 ± 0.14 kcal/mol |
| SAGGMKVTRLPNALVFEYPLPNSTLRIVVTPGDGTYTLELYRDGKLIATFPSPGPVADLVEAAIKALSAGGS [r8_276_TrMRF] | 3.2 ± 0.033 kcal/mol |
| SAGGSAMPGMTLQELLDAIRALLPPGARARIYVRNPDGEVIELTDLDDITVEDLENAEIRIEIEPVSAGGSA [r15_144_TrROS_Hall] | 4.01 ± 0.052 kcal/mol |
| SAGGGKKTKYVLLTFNPKEVKAEDLEKEILKKGAEIYIGDKPIDPGKGVKEVMKANPNTTFLVKIYDSAGGS [r8_38_TrMRF] | 1.61 ± 0.42 kcal/mol |
| MEEIKNLPGVKYEPIIEDGEIRLVRFEIPKEVFEKFGKPPVILLVEFSKDGKYRILPESIPKLLELGIIPGS [r1_256_TrMRF] | 2.52 ± 0.058 kcal/mol |
| SAGMKIRILILGKGDPAQVEALAKELEAKLKEELGTEDVEVETLPASLTEEAAEERAKEEKVDIVVYESAGG [r19_89_JUSTAS] | 1.08 ± 0.13 kcal/mol |
| SAGKFKITNISPMEERKPEDDKWEEQPYIMIRMRWKDPQKALDEIKEEFGYPVNIQRDPDDGWATIMIPSAG [r5_907_TrROS] | 0.231 ± 0.18 kcal/mol |
| SAGGSAGGSPVLVRVYARDEDGNETPVAEIALPVENDNPEEAAKKAREIAKKLGVKEYRVEIESAGGSAGGS [r12_569_TrMRF] | 1.56 ± 0.046 kcal/mol |
| SAGERKVLVIENLTSEELIEAIREALEKSPPGLLILVPDPEKAEEIRRAFPGIPLVVLNRETGELVEVESAG [r5_391_TrMRF] | 3.46 ± 0.044 kcal/mol |
| SAGGSAGGSSYLVEVISRKKVKVGGKERYVVPVRIPDNGELVELVVSEDVAKNIKPGDVVVLSSAGGSAGGS [r12_382_TrMRF] | -0.00598 ± 0.12 kcal/mol |
| SAGGSAGGSAKTITITFLFDSPENAKDFVREIAQEDGMKIKVEWERDPEGWWWVTATIEVPSAGGSAGGSAG [r3_273_TrROS] | 3.48 ± 0.13 kcal/mol |
| SMTPEEARALAEAIAAERAAAGYATEMELTVTPVNGVPVATFRFRFTDAAGRATEFTVTVAPDGTVTFTPSA [r9_1027_JUSTAS] | 3.814 ± 0.031 kcal/mol |
| SAGGPGRMREREFEIEFPFEPGQSIEDALRELIGLPPGIQIEDIKVEVDPEDGWVKISVTITVYDPNDSAGG [r13_828_TrROS] | 1.29 ± 0.071 kcal/mol |
| SAMITVEIVDPLPDIANLSEEEAKALAEELAEEYAKKKFPNENVKITKVEVELEPETPEIRVTVTLELKSAG [r14_310_JUSTAS] | 2.56 ± 0.083 kcal/mol |
| SDNFQPDMTFPVTEIGDDKVTMKYNGKPYYIPTSKITSPNVTVKITDGTVSEVSSPSPSPLPPENIKKLSSA [r9_842_JUSTAS] | -0.293 ± 0.35 kcal/mol |
| SAMKIKPGEKVKIKIEVKNKKTKKKKTIEIEVPVDEETGEVFTEDELKKLLEKLGIEVEEVKIVEIEKESAG [r14_93_TrROS_Hall] | 0.601 ± 0.15 kcal/mol |
| SAGGSAGGSAGKIVIVVDEDGNYTLKVNGKTYVFKTPEEAKAAAEELKKAGIEIEIVEVPSAGGSAGGSAGG [r17_35_TrROS_Hall] | 4.96 ± 0.16 kcal/mol |
| SAGGSAGGSAGKIPEIIKKTNAVEKDGKIFLGIKTDGKYYLIELEKKTLKIKKIEPFPDKSAGGSAGGSAGG [r11_808_TrMRF] | 0.776 ± 0.12 kcal/mol |
| SMTIEIEVDGKTVTVEIDPKTGKIKKVVVKDKETGEWKELSDEEIEKLLKELEDELREKREKLEKEGKEPSA [r9_368_TrROS_Hall] | 2.5 ± 0.18 kcal/mol |
| SAGGSAGGSSQEREFTLPDPDGKDIKITMHQNPDGRPRAEIENKDGEPVKEFDSPDDIEDLLKSAGGSAGGS [r20_202_TrROS] | 0.168 ± 0.06 kcal/mol |
